Reference: US20240189387A1, “DOSING REGIMENS FOR HEMATOPOIETIC STEM CELL MOBILIZATION FOR STEM CELL TRANSPLANTS IN MULTIPLE MYELOMA PATIENTS” (Ensoma, Inc., priority 2021, published 2024)
Like-named read-outs stand apart in the source and are kept apart here.

What was measured:
neutrophils = test: Phase 1 trial: mobilization of neutrophils (automated hematology analyzer); conditions: MGTA-145 monotherapy
Method: (§1) The dose of MGTA-145 was one of 0.0075 mg/kg, 0.015 mg/kg, 0.03 mg/kg, 0.075 mg/kg, 0.15 mg/kg, or 0.3 mg/kg. […] The dose of MGTA-145 was one of 0.015 mg/kg, 0.03 mg/kg, 0.075 mg/kg, or 0.15 mg/kg. […] The dose of MGTA-145 was one of 0.03 mg/kg or 0.075 mg/kg.
(§2) Mobilization of white blood cells (WBCs), neutrophils, lymphocytes, basophils, and eosinophils was quantified by automated hematology analyzer.

white blood cells (WBCs) = test: Phase 1 trial: mobilization of white blood cells (automated hematology analyzer); conditions: MGTA-145 monotherapy
Method: as §1, §2

CD34+ cells [1] = test: Phase 1 trial Part D: apheresis collection yield; conditions: 2 h stagger after plerixafor
Method: as §1
The table documents the body weight of each subject, the total CD34+ cells that were obtained through the apheresis procedure, the normalized CD34+ cells/kg of body weight, and the percentage of CD34+ cells that were CD90+CD45RA−.
The table documents the total CD34+ cells that were obtained through the apheresis procedure, the normalized CD34+ cells/kg of body weight, and the percentage of CD34+ cells that were CD90+CD45RA−.

CD34+ cells [2] = test: Phase 1 trial: mobilization of CD34+ cells into peripheral blood (multicolor flow cytometry); conditions: for Percent ≥20/μL / Peak CD34+ (#/μL) Median: Part A
MMP-9 = test: Phase 1 trial: plasma MMP-9 and TIMP-1 (sandwich immunoassay); assay type: in vivo, human; conditions: MGTA-145 monotherapy, all six doses
Method: (§3) Additionally, blood samples were analyzed by multicolor flow cytometry to quantify changes in expression of neutrophil activation markers such as L-selectin, CD11b, CD18, and CD66. Additionally, matrix metalloproteinase 9 (MMP-9), a neutrophil protease believed to mediate mobilization in response to MGTA-145, as well as its cognate inhibitor, TIMP-1, were quantified in plasma samples collected at the same time points by sandwich immunoassay.

[3] = Phase 1 trial: treatment emergent adverse events; conditions: Part A, n = 24
From the text: FIG. 1A depicts the treatments provided to patient cohorts enrolled in Part A and Part B of a Phase 1 clinical trial as well as measurable endpoints.
Patients were monitored for emergent adverse events.

[4] = tested on: hematopoietic stem and progenitor cells; conditions: U.S. Pat. No. 6,080,398; cited from earlier work
[5] = assay type: in vivo
[6] = tested on: LT-HSC cells (Lin−c-Kit+Sca1+CD150+CD48−); test: Mobilization in mice and primary/secondary transplantation at limit dilution; assay type: in vivo; conditions: compared to the other cohorts
From the text: Mice (CD45.1) were mobilized according to the scheme shown in FIG. 24 and mobilized cells transplanted into CD45.2 mice at limit dilution.

[7] = tested on: neutrophil activation markers (L-selectin, CD11b, CD18, CD66); test: Phase 1 trial: neutrophil activation markers (flow cytometry); assay type: in vivo, human; conditions: MGTA-145 monotherapy
Method: as §3

CXCR2 = target: T1, CXCR2 (Homo sapiens, UniProt P25025); test: Phase 1 trial: CXCR2 expression on peripheral blood neutrophils; assay type: in vivo
T1 construct: endogenous in cells; host or cells: peripheral blood neutrophils of dosed subjects (in vivo)
T1 sequence (P25025 1-360): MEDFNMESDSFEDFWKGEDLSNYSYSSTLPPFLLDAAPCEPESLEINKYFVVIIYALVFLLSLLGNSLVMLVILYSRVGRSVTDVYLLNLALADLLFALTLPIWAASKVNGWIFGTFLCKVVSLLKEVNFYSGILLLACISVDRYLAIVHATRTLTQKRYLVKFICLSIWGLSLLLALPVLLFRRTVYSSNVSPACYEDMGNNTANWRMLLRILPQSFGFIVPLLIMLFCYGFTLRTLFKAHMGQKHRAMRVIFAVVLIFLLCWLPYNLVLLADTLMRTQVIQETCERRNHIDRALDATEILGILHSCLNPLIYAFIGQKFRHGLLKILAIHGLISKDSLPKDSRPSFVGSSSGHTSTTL

CD34+CD90+CD45RA− cells = test: Phase 1 trial: mobilization of CD34+CD90+CD45RA− cells into peripheral blood (flow cytometry)
[8] = tested on: neutrophil and platelet engraftment; assay type: in vivo
[9] = G-CSF; bone pain, headache, myalgia, and/or fatigue (up to 1+ week); Pulsiper et al. 2009; cited from earlier work
[10] = tested on: graft cell subsets (T cells, B cells, NK cells); conditions: cited from earlier work
[11] = tested on: neutrophil activation markers (L-selectin, CD11b, CD18, CD66); conditions: 5 days of G-CSF treatment, Falanga et al., Blood 1999; cited from earlier work
[12] = tested on: CD90+CD45RA− among CD34+ cells; conditions: Goncalves ASTCT 2021; cited from earlier work
[13] = higher doses (0.075, 0.15, 0.3 mg/kg), 2 hours post administration
[14] = lower doses (0.0075, 0.015, 0.03 mg/kg)
[15] = MGTA-145 monotherapy 0.03 mg/kg
[16] = MGTA-145 monotherapy, the other doses
[17] = Chen et al., 2019, 2 LP plerixafor, 1 LP G-CSF
[18] = Devine et al, 2008, yield of 1 LP
[19] = G-CSF, Chaidos et al, Blood 2012

## MGTA-145: Gro-β T (SEQ ID NO: 2), truncated Gro-β with deletion of the first four N-terminal amino acids; CXCR2 agonist
neutrophils; [13]
  initial plateau of neutrophil mobilization: 5-8 ×10^3 cells/μL
neutrophils; [14]
  peak mobilization of neutrophils: 13-15 ×10^3 cells/μL
White blood cells (WBCs); [13]
  initial plateau of WBC mobilization: 6-10 ×10^3 cells/μL
White blood cells (WBCs); [14]
  peak mobilization of WBCs: 15-17 ×10^3 cells/μL
CD34+ cells [1]; MGTA-145 0.03 mg/kg
  CD34+/kg Mean: 4.1 x10^6
  CD34+/kg Median: 4.3 x10^6
  CD90+/kg Mean (CD34+CD90+CD45RA− cells): 1.3 x10^6
  CD90+/kg Median (CD34+CD90+CD45RA− cells): 1.5 x10^6
  Total CD34+ Yield Median (range): 321 (239-500) x10^6
CD34+ cells [1]; MGTA-145 0.03 mg/kg, 0.03 mg/kg
  CD90+ (% of CD34+): 31%
CD34+ cells [1]; MGTA-145 […]
  CD90+/kg Mean (CD34+CD90+CD45RA− cells): 1.4 x10^6
  CD90+/kg Median (CD34+CD90+CD45RA− cells): 1.2 x10^6
CD34+ cells [1]; MGTA-145 […], […]
  CD90+ (% of CD34+): 37%
CD34+ cells [2]; [15]
  fold increase of CD34+ cells: 7 fold
  peak concentration of CD34+ cells: ~10 cells/μL
CD34+ cells [2]; MGTA-145 monotherapy, across six doses 0.0075-0.3 mg/kg
  time of peak CD34+ mobilization post administration: about 30 minutes
CD34+ cells [2]; [16]
  fold increase of CD34+ cells: 2-3 fold
CD34+ cells [2]; MGTA-145 monotherapy, the other doses (0.0075, 0.015, 0.075, 0.15, 0.3 mg/kg)
  peak concentration of CD34+ cells: ~5 cells/μL
CD34+ cells [2]; MGTA-145 0.03 mg/kg
  Percent ≥20/μL: 0%
CD34+ cells [2]; MGTA-145 0.3 mg/kg
  Peak CD34+ (#/μL) Median: 3 #/μL
  Percent ≥20/μL: 0%
CD34+ cells [2]; MGTA-145 on Day 1, 0.03 mg/kg
  Peak CD34+ (#/μL) Median: 12 #/μL
MMP-9
  molar ratio of MMP-9:TIMP-1: rapid increase 30 minutes post-administration
  plasma levels of MMP-9: increased sharply within 30 minutes post-administration
[3]; MGTA-145 0.0075-0.3 mg/kg
  Subjects with any drug related TEAE: 19 (79.2) n (%)
[3]
  Back pain/Musculoskeletal pain: 19 (79.2) n (%)
[4]
  potency to induce hematopoietic stem and progenitor cell mobilization relative to Gro-β: superior to that of Gro-β by multiple orders of magnitude
[5]
  median severity of pain on a scale of 1-10: 8 (3-10)
  patients experiencing hyperhidrosis: 4%
  patients experiencing nausea: 8%
  patients experiencing thrombocytopenia: 8%
  patients experiencing vomiting (grade 2): 4%
  patients with TEAEs at least possibly related to MGTA-145: 60%
  patients with acute pain: 9 patients
[5]; 11 patients
  patients experiencing pain: 50%
[5]; 25 patients
  patients with acute onset transient bone pain with MGTA-145: 38%
  patients with pain (all grade 1): 44%
[5]; 25 patients, grade 1 n=14, grade 2 n=1
  patients with at least 1 treatment emergent AE with MGTA-145: 60%
[5]; 25 patients, range 3-28
  duration of acute onset transient bone pain: 7 min
[5]; initial cohort
  patients with at least 1 adverse event: 90%
  patients with grade 2 AEs (anemia, hypokalemia): 20%
  patients with grade 3 AEs (worsening of baseline grade 3 anemia; hypocalcemia): 20%
[5]; multiple myeloma patients
  tolerability: well tolerated
[5]; range 3-10
  onset of acute and transient bone pain after start of MGTA-145 infusion (median): about 5 minutes
[5]; range 3-28
  median duration of acute and transient bone pain: 7 min
[6]
  engraftment rates, secondary transplantation: vastly improved engraftment rates
[7]; all doses except the highest (0.3 mg/kg)
  fold change relative to baseline of CD66: < 2 fold
[7]; all six doses
  fold change relative to baseline of CD11b and CD18: < 2 fold
  fold change relative to baseline of L-selectin: < 2 fold
CXCR2; MGTA-145 0.07 mg/kg, staggered dosing with plerixafor, two consecutive days
  CXCR2 expression recovery prior to the second dose: ~80 % of baseline
CXCR2; MGTA-145 monotherapy, followed by recovery over 24 hours
  CXCR2 on peripheral neutrophils: rapid downregulation
CD34+CD90+CD45RA− cells; [15]
  fold increase of CD34+CD90+CD45RA− cells: ~8.3 fold
  peak concentration of CD34+CD90+CD45RA− cells: ~3 cells/μL
CD34+CD90+CD45RA− cells; MGTA-145 monotherapy, six doses
  time of peak CD34+CD90+CD45RA− mobilization post administration: 30 min
CD34+CD90+CD45RA− cells; [16]
  fold increase of CD34+CD90+CD45RA− cells: 2-3.5 fold
  peak concentration of CD34+CD90+CD45RA− cells: 1-1.6 cells/μL
[8]; 14 patients
  engraftment at day 100 follow-up: durable engraftment
[8]; 18 transplanted patients
  engraftment after transplant: All patients have engrafted
  median time to platelet engraftment (platelets ≥20,000×10^6/L, no transfusion in 7 days): 17.5 days
  patients needing RBC transfusion: 17%
[8]; 18 transplanted patients, range 11-15
  median time to neutrophil engraftment: 12 days

B1: G-CSF: Filgrastim (G-CSF), most common clinical hematopoietic stem cell mobilization protocol, five days (protein, chains of the INN, looked up)
chain: MTPLGPASSLPQSFLLKCLEQVRKIQGDGAALQEKLCATYKLCHPEELVLLGHSLGIPWAPLSSCPSQALQLAGCLSQLHSGLFLYQGLLQALEGISPELGPTLDTLQLDVADFATTIWQQMEELGMAPALQPTQGAMPAFASAFQRRAGGVLVASHLQSFLEVSYRVLRHLAQP
[9]
  tolerability: Majority with bone pain,
[10]; Chen et al., 2019, 2 LP for plerixafor (N = 50+), 1 LP for G-CSF (N = 112+)
  graft CD34+ Median (range): 4.2e+06 kg⁻¹
[10]; [17]
  graft CD3+ Median (range): 2.5e+08 kg⁻¹
  graft CD4+ Median (range): 1.5e+08 kg⁻¹
  graft CD8+ Median (range): 7e+07 kg⁻¹
  graft CD19+ Median (range): 5e+07 kg⁻¹
  graft CD56+ Median (range): 1e+07 kg⁻¹
[10]; [18]
  graft CD3+ Median (range): 1.3 (1.2-6.8) ×10^8/kg
  graft CD4+ Median (range): 1.1 (0.7-3.2) ×10^8/kg
  graft CD8+ Median (range): 0.4 (0.3-3.4) ×10^8/kg
  graft CD56+ Median (range): 0.2 (0.1-0.5) ×10^8/kg
[10]; Devine et al, 2008, yield of 1 LP, plerixafor N = 24, G-CSF N = 8
  graft CD34+ Median (range): 4.2 (2.5-18.7) ×10^6/kg
[10]; G-CSF, 40 healthy donors, Singhal et al, BMT 2000
  TNC/kg donor weight Median (range): 7.2 (3.2-14.0) ×10^8 cells
[10]; G-CSF, 78 healthy donors, Chaidos et al, Blood 2012
  frequency of CD3+ T cells in graft, Median: 45.3 % of CD45+
[10]; [19]
  frequency of CD4+ T cells in graft, Median: 29.8 % of CD45+
  frequency of CD8+ T cells in graft, Median: 11.8 % of CD45+
  frequency of CD19+ B cells in graft, Median: 10.5 % of CD45+
  frequency of CD56+ NK cells in graft, Median: 3.2 % of CD45+
  frequency of Tregs in graft, Median: 3.5 % of CD4+ T cells
  frequency of iNKT cells in graft, Median: 0.04 % of CD3+
[11]
  fold increase in neutrophil activation markers: ~2.7 fold
[12]
  CD90+CD45RA− among CD34+ cells with a regimen that includes G-CSF: 6%
